# Reference: FireProtDB (doi:10.1093/protein/8.11.1153)
# B1: Alpha-lactalbumin, P00712 (parent)
# chain: MMSFVSLLLVGILFHATQAEQLTKCEVFQKLKDLKDYGGVSLPEWVCTAFHTSGYDTQAIVQNNDSTEYGLFQINNKIWCKDDQNPHSRNICNISCDKFLDDDLTDDIVCAKKILDKVGINYWLAHKALCSEKLDQWLCEKL
# Variants of: B1
# Details: Capra hircus; pH 2; 20 °C; Urea; CD; NaCl-HCl 100 mM; structure 1HFY; whole UniProt chain shown
Variant,ddG of mutation (higher = less stable) [kcal/mol],denaturant m value [kcal/mol/M],denaturant midpoint (higher = more stable) [M],unfolding free energy [kcal/mol]
MMSFVSLLLVGILFHATQAEQLTKCEVFQKLKDLKDYGGVSLPEWVCIAFHTSGYDTQAIVQNNDSTEYGLFQINNKIWCKDDQNPHSRNICNISCDKFLDDDLTDDIVCAKKILDKVGINYWLAHKALCSEKLDQWLCEKL [T48I],-0.07,0.31,2.5,0.77
MMSFVSLLLVGILFHATQAEQLTKCEVFQKLKDLKDYGGVSLPEWVCTAFHISGYDTQAIVQNNDSTEYGLFQINNKIWCKDDQNPHSRNICNISCDKFLDDDLTDDIVCAKKILDKVGINYWLAHKALCSEKLDQWLCEKL [T52I],-0.32,0.39,2.6,1.02
MMSFVSLLLVGILFHATQAEQLTKCEVFQKLKDLKDYGGVSLPEWVCTIFHTSGYDTQAIVQNNDSTEYGLFQINNKIWCKDDQNPHSRNICNISCDKFLDDDLTDDIVCAKKILDKVGINYWLAHKALCSEKLDQWLCEKL [A49I],-0.3,0.33,3,1
MMSFVSLLLVGILFHATQAEQLTKCEVFQKLKDLKDYGGVSLPEWVCTTFHTSGYDTQAIVQNNDSTEYGLFQINNKIWCKDDQNPHSRNICNISCDKFLDDDLTDDIVCAKKILDKVGINYWLAHKALCSEKLDQWLCEKL [A49T],0.14,0.29,1.9,0.56
